Assays:
[1] = Holmberg et al. 1994; cited from earlier work
[2] = tested on: tumours and other background tissues; assay: Gamma-recording after technetium-99m labelled dextran derivative: accumulation into tumours and background tissues; details: patient, 20 mCi technetium-99m labelled dextran derivative
Method: The Effect of Different Dextran Conjugates on the Tumour Accumulation and Background-activity
After the administration of 20 mCi of technetium-99 m, labelled dextran derivative to the patient a gamma-recording was carried out on the patient. From the image, the accumulation of the labelled compound into the tumours and to the other background tissues was evaluated. The compounds of the state of the art were prepared as described in the publication Holmberg et al., Antibody Immunoconj. Radiopharm 7: 253-257, 1994.

In the case of “Dextran 10 000 somatostatin-^99mTc: State of the art conjugate prepared as in Holmberg et al. 1994; dextran 10 000 somatostatin labelled with technetium-99m”, the “half-life in blood T(1)½” value [1] is given as 4 h, the “half-life in blood T(2)½” value [1] is given as 8 h and the “Background (accumulation of the labelled compound into other background tissues)” value (from here on “Background”) [2] is given as “+++”. The “Tumour (accumulation of the labelled compound into the tumours)” value (“Tumour” below) [2] was “+”.
For “Dextran 40 000 somatostatin-taurine ^99mTc: Dextran 40 000-somatostatin-taurine labelled with technetium-99m using SnCl and sodium pertechnetate”, the “Background” value [2] was “+”.
For “Dextran 10 000 somatostatin-taurine-^99mTc: Technetium-99m labelled dextran 10 000 somatostatin taurine conjugate, listed under The Invention”, the “Background” value [2] was “++” and the “Tumour” value [2] was “+”.
With “Dextran 40 000 somatostatin ^99mTc: State of the art dextran 40 000 somatostatin conjugate labelled with technetium-99m, without taurine” the “Background” value [2] was “++” and the “Tumour” value [2] was “++”.
